# Results as given in the supplement of paper PMC7125110.
# ± gives the standard error. For some assays here: This sample holds only a part of the variants without activity.
# B1: glmS ribozyme (parent)
# chain: AUAAAAGCGCCAGAACUACAGAAAUGUAGUUGACGAGGAGGAGGUUUAUCGAAUUUUCGGCGGAUGCCUCCAAA
# Columns and labels:
# Conditions in all cases: with glucosamine-6-phosphate
# glucosamine-6-phosphate [1] = variants of: B1; assay: kcat; higher = faster cleavage; RNA array
# How it was run: (§1)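 Barcoded ribozyme variants were transcribed in situ on sequenced MiSeq chips by E. coli RNA polymerase. At 37 °C, a hybridised Cy3 probe tracked them while glucosamine-6-phosphate (40 μM to 10 mM) in HEPES/KCl/Mg(OAc)2 buffer flowed in and tiles were imaged over ~14 h. Per-tile medians of signals normalised to baseline and to non-cleaving reference variants were fit to one- or two-exponential decays, giving kobs. kcat and KM came from weighted Michaelis–Menten fits across concentrations.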
# glucosamine-6-phosphate [2] = variants of: B1; assay: KM; higher = weaker cofactor use; RNA array
# How it was run: as §1
# glucosamine-6-phosphate [3] = variants of: B1; assay: self-cleavage kobs at 640 uM GlcN6P; higher = faster cleavage; RNA array
# How it was run: as §1
# glucosamine-6-phosphate [4] = variants of: B1; assay: self-cleavage kobs at 2500 uM GlcN6P; higher = faster cleavage; RNA array
# How it was run: as §1
# glucosamine-6-phosphate [5] = variants of: B1; assay: self-cleavage kobs at 10000 uM GlcN6P; higher = faster cleavage; RNA array
# How it was run: as §1
# glucosamine-6-phosphate [6] = variants of: B1; assay: self-cleavage kobs at 40 uM GlcN6P; higher = faster cleavage; RNA array
# How it was run: as §1
# glucosamine-6-phosphate [7] = variants of: B1; assay: self-cleavage kobs at 160 uM GlcN6P; higher = faster cleavage; RNA array
# How it was run: as §1
Variant,kcat (glucosamine-6-phosphate [1]) [s⁻¹],KM (glucosamine-6-phosphate [2]) [µM],self-cleavage kobs at 640 uM GlcN6P (glucosamine-6-phosphate [3]) [s⁻¹],self-cleavage kobs at 2500 uM GlcN6P (glucosamine-6-phosphate [4]) [s⁻¹],self-cleavage kobs at 10000 uM GlcN6P (glucosamine-6-phosphate [5]) [s⁻¹],self-cleavage kobs at 40 uM GlcN6P (glucosamine-6-phosphate [6]) [s⁻¹],self-cleavage kobs at 160 uM GlcN6P (glucosamine-6-phosphate [7]) [s⁻¹]
U47A A52U,0.000365 ± 3.9e-05,2690 ± 570,7.72e-05 ± 1.5e-05,0.000158 ± 3e-05,0.000299 ± 4.3e-05,,
U46C C70U,0.00656 ± 0.0027,,0.00156 ± 0.00017,0.00301 ± 0.00041,0.00508 ± 0.00066,0.00017 ± 2.3e-05,0.00026 ± 3.8e-05
U46A A53G,0.00162 ± 0.00057,,0.000508 ± 8.1e-05,0.00104 ± 0.00016,0.00261 ± 0.00051,8.49e-05 ± 1.5e-05,0.000201 ± 3.7e-05
U45C U46G,0.00122 ± 0.00043,2110 ± 1100,0.000322 ± 8.8e-05,0.000911 ± 0.00015,0.000685 ± 0.00025,,7.78e-05 ± 1.5e-05
G44C U54C,0.000264 ± 8.4e-05,,,0.000133 ± 2.4e-05,0.000179 ± 3e-05,,
U45A C70A,0.000375 ± 0.00017,,0.000179 ± 3.7e-05,0.000225 ± 3.4e-05,,,2.63e-05 ± 1.1e-05
U45A U49G,0.00163 ± 0.00032,1560 ± 570,0.000385 ± 5.1e-05,0.0012 ± 0.00012,0.00132 ± 0.00015,5.25e-05 ± 1e-05,0.000194 ± 4.9e-05
G44C U55G,5.43e-05 ± 1.8e-05,,,5.66e-05 ± 2.2e-05,4.43e-05 ± 2.1e-05,,
U45C C71A,0.00125 ± 0.00022,4720 ± 1500,0.00014 ± 3.9e-05,0.000744 ± 0.00031,0.000832 ± 0.00015,,
U45C C71U,0.00401 ± 0.00038,2470 ± 340,0.000828 ± 0.00012,0.00167 ± 0.00031,0.00338 ± 0.00033,6.69e-05 ± 7.5e-06,0.000236 ± 5.8e-05
U46G U49G,9.12e-05 ± 1.4e-05,,,8.04e-05 ± 1.8e-05,7.66e-05 ± 1.7e-05,< 1e-05,
U46G C70A,0.000224 ± 6.8e-05,,0.000153 ± 2.5e-05,0.000395 ± 7.2e-05,0.000188 ± 3.1e-05,4.78e-05 ± 1.2e-05,4.54e-05 ± 1.6e-05
G43U A53G,4.73e-05 ± 1.7e-06,793 ± 120,,3.6e-05 ± 1.5e-05,,< 1e-05,
G43U A53C,2.22e-05 ± 5.7e-07,7310 ± 400,,,,,
G43U A53U,2.65e-05 ± 2.2e-06,2760 ± 880,,,,,< 1e-05
U46C U55A,0.00288 ± 0.00026,1110 ± 150,0.0011 ± 0.0002,0.00248 ± 0.00076,0.00247 ± 0.00041,9.7e-05 ± 1.5e-05,
